Non-standard residues stand in square brackets, D forms with d. Groups on a side chain read outwards from the residue. Primed or numbered codes have the meaning given here. No end group written: not given here. *: point of attachment. X2 = ((2-hydroxyethyl)thio)acetamide, O=C(CSCCO)*; PEG11′ = not defined here; Nva = CCC[C@H](N)C(=O)O; Abu = CC[C@H](N)C(=O)O; Atz = not defined here

Assay in all cases: cell-based or functional assay
The target in test [1] is human Nav1.3 voltage-gated sodium channel (human) (UniProt Q9NY46).
Test [2] addresses human Nav1.5 voltage-gated sodium channel (human) (UniProt Q14524).
In test [3] the target is human Nav1.7 voltage-gated sodium channel (human) (UniProt Q15858).
human Nav1.7 voltage-gated sodium channel (human), sequence (Q15858 whole entry): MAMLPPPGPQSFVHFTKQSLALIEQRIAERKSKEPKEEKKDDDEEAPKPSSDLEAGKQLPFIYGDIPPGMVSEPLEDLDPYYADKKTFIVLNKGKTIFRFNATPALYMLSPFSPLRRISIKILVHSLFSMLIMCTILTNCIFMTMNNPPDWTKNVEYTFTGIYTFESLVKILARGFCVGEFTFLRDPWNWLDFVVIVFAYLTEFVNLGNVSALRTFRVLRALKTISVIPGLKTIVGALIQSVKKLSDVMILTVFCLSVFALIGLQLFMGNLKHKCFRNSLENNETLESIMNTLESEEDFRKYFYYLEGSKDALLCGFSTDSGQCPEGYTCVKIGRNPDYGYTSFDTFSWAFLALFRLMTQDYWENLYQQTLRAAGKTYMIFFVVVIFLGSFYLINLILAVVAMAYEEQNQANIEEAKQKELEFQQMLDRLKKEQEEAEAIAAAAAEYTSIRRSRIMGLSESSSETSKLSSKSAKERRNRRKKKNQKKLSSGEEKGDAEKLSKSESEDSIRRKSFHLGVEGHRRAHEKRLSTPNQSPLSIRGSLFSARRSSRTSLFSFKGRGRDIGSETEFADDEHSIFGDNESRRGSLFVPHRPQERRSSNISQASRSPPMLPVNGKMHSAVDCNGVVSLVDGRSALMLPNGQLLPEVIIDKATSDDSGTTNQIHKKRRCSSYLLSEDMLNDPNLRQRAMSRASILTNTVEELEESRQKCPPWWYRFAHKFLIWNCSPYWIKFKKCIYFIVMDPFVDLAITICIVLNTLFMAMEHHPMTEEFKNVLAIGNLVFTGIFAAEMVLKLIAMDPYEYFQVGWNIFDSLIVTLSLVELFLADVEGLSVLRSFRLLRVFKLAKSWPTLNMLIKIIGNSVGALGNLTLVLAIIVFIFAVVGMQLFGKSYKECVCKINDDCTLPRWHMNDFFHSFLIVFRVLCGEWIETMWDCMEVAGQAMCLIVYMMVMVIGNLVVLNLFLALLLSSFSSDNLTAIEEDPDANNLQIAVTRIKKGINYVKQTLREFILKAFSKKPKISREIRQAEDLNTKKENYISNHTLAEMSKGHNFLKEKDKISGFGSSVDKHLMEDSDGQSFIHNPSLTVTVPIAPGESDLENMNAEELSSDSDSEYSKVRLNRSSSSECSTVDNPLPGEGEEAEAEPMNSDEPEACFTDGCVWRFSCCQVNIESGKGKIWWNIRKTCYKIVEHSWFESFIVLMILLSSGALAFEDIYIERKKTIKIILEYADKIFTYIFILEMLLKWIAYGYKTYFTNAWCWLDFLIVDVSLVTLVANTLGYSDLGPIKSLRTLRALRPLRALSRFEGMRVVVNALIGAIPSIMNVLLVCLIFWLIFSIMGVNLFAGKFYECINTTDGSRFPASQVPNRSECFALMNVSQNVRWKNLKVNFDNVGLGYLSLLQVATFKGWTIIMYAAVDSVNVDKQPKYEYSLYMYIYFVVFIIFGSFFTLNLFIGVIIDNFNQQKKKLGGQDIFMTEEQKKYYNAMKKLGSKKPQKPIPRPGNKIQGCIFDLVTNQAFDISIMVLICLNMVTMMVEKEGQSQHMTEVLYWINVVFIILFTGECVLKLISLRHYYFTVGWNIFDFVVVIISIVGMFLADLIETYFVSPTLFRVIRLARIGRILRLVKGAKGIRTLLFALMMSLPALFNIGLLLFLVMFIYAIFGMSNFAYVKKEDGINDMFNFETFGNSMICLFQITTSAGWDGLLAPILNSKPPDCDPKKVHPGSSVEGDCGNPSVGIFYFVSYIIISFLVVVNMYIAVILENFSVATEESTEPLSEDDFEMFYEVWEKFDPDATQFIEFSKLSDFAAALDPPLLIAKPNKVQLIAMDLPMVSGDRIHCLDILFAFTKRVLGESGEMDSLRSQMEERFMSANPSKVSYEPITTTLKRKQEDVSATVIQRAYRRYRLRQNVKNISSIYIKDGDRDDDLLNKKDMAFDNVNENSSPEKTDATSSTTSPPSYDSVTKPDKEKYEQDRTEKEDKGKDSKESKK
In test [4] the target is human voltage-gated sodium channel Nav1.5 (human) (UniProt Q14524).
For test [5], the target named is human voltage-gated sodium channel Nav1.7 (human) (UniProt Q15858).
human voltage-gated sodium channel Nav1.7 (human), sequence (Q15858 whole entry): as above
Test [6] has as its target human voltage-gated sodium channel Nav1.3 (human) (UniProt Q9NY46).
Test [7] has as its target human voltage-gated sodium channel Nav1.5 (human) (UniProt Q14524). This is another data set of the same source.
Test [8] deals with human voltage-gated sodium channel Nav1.7 (human) (UniProt Q15858). The source holds these as a separate data set.
Test [9] has as its target human voltage-gated sodium channel Nav1.4 (human) (UniProt P35499).

human Nav1.5 voltage-gated sodium channel (human), sequence (Q14524 whole entry): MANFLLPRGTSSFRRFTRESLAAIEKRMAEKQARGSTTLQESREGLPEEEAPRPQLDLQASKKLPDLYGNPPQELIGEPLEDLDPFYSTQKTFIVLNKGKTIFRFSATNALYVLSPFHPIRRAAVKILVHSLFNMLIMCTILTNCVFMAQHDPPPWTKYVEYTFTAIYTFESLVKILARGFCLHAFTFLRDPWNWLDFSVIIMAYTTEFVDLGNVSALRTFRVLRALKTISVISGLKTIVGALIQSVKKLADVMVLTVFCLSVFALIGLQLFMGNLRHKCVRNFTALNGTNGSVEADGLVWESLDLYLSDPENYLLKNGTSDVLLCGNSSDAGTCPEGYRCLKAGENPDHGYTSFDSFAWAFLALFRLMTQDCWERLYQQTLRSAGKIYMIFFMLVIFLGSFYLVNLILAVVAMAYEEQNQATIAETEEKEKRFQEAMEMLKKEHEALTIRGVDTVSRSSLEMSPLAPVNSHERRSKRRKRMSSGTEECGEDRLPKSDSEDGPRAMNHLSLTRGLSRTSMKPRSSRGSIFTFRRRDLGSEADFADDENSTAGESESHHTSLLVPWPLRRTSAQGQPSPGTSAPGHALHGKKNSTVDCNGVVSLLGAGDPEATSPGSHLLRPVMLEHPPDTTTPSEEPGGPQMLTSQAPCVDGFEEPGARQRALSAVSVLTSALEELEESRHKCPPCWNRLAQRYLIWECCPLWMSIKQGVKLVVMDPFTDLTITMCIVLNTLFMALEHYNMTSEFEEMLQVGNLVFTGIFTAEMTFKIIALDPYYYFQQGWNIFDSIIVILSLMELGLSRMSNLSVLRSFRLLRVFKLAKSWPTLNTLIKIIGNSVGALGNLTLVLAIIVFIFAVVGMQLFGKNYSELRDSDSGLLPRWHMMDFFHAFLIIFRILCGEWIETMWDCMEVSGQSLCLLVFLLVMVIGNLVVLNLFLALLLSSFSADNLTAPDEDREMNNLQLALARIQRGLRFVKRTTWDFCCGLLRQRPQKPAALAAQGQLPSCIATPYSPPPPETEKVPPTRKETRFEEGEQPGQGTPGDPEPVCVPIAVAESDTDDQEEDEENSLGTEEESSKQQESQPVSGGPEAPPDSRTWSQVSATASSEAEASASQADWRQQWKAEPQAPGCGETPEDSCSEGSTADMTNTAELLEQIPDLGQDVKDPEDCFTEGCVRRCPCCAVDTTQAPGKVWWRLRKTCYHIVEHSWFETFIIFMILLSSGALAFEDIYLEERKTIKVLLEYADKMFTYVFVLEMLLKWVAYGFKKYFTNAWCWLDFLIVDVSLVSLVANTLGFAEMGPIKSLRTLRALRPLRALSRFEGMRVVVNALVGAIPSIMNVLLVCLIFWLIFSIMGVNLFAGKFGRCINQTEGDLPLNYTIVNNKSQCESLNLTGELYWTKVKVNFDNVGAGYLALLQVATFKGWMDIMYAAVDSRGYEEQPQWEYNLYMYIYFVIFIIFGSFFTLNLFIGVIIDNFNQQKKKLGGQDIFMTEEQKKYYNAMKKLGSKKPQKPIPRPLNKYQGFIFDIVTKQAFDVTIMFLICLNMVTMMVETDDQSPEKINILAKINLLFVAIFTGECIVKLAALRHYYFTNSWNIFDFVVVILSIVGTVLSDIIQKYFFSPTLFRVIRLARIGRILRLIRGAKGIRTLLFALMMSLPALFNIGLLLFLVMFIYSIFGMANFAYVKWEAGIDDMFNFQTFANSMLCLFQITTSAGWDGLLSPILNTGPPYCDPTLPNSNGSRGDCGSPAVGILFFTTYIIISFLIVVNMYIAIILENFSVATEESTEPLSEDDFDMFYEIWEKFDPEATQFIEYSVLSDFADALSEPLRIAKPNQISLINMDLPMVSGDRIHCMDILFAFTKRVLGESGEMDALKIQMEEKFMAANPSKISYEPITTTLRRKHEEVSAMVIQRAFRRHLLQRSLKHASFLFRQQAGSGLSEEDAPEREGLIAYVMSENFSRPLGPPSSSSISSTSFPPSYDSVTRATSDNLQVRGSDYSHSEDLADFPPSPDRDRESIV

In test [1], “4-Pen-[2-Abu5,13;Leu6;Arg28]GpTx-1(1-34) (peptide)” had an IWQ Use Nav1.3 IC50 (IonWorks Quattro electrophysiology) of 0.9 µM. In [2], this molecule registered an IWQ Use Nav1.5 IC50 (IonWorks Quattro electrophysiology) of 36.8 µM. In addition, in [3], the IWQ Use Nav1.7 IC50 (IonWorks Quattro electrophysiology) came out at 0.54 µM. Moreover, in [4], the Nav1.5 Use IC50 (µM), electrophysiology by PatchXpress is more than 10 µM. Also, the Nav1.7 Use IC50 (µM), electrophysiology by PatchXpress in test [5] came out at 0.003 µM.

With “4-Pen-[Ala5;Phe6;2-Abu13;Arg28]GpTx-1(1-34) (peptide)”, the IWQ Use Nav1.3 IC50 (IonWorks Quattro electrophysiology) in test [6] was found to be 0.26 µM. Also, the IWQ Use Nav1.5 IC50 (IonWorks Quattro electrophysiology) in test [7] was 44.4 µM. In test [8], this molecule yielded an IWQ Use Nav1.7 IC50 (IonWorks Quattro electrophysiology) of 0.18 µM. In [4], this molecule gave a Nav1.5 Use IC50 (µM), electrophysiology by PatchXpress of more than 10 µM. In [5], the Nav1.7 Use IC50 (µM), electrophysiology by PatchXpress turned out to be 0.004 µM.

For the molecule “4-Pen-[Nva5;Leu6;2-Abu13;Arg28]GpTx-1(1-34) (peptide)”, in test [6], the IWQ Use Nav1.3 IC50 (IonWorks Quattro electrophysiology) is 0.23 µM. This molecule showed an IWQ Use Nav1.5 IC50 (IonWorks Quattro electrophysiology) in test [7] of 46.2 µM. In test [8], the IWQ Use Nav1.7 IC50 (IonWorks Quattro electrophysiology) worked out at 0.1 µM.

For “[2-Abu5;Leu6;K(4-Pen)13;Arg28]GpTx-1(1-34) (peptide)”, the IWQ Use Nav1.3 IC50 (IonWorks Quattro electrophysiology) in [1] was found to be 0.81 µM. The molecule also returned an IWQ Use Nav1.5 IC50 (IonWorks Quattro electrophysiology) in test [2] of 39.7 µM. In [3], this molecule displayed an IWQ Use Nav1.7 IC50 (IonWorks Quattro electrophysiology) of 0.55 µM. This molecule displayed a Nav1.5 Use IC50 (µM), electrophysiology by PatchXpress in test [4] of more than 10 µM. In test [5], this molecule gave a Nav1.7 Use IC50 (µM), electrophysiology by PatchXpress of 0.002 µM.

Molecule “[Ala5;Leu6,26;Pra12;Arg28]GpTx-1(1-34) (peptide)” came in with an IWQ Use Nav1.3 IC50 (IonWorks Quattro electrophysiology) in test [1] of 0.54 µM. In test [2], this molecule showed an IWQ Use Nav1.5 IC50 (IonWorks Quattro electrophysiology) of more than 50 µM. In [3], this molecule returned an IWQ Use Nav1.7 IC50 (IonWorks Quattro electrophysiology) of 0.26 µM.

Molecule “[Ala5;Leu6,26;Pra13;Arg28]GpTx-1(1-34) (peptide)” returned an IWQ Use Nav1.3 IC50 (IonWorks Quattro electrophysiology) in test [1] of 0.48 µM. The molecule further showed an IWQ Use Nav1.5 IC50 (IonWorks Quattro electrophysiology) in test [2] of 36.4 µM. Moreover, in test [3], the IWQ Use Nav1.7 IC50 (IonWorks Quattro electrophysiology) worked out at 0.22 µM. The molecule also had a Nav1.5 Use IC50 (µM), electrophysiology by PatchXpress in [4] of more than 10 µM. The same molecule showed a Nav1.7 Use IC50 (µM), electrophysiology by PatchXpress in [5] of 0.009 µM.

As for “[Ala5;Phe6,13;Arg28]GpTx-1(1-34)-FreeAcid (peptide)”, the IWQ Use Nav1.3 IC50 in [6] was 1200 nM.

Take “[Ala5;Phe6;Arg13,28]GpTx-1(1-34)-FreeAcid (peptide)”: the IWQ Use Nav1.3 IC50 in test [6] is 600 nM. The same molecule had an IWQ Use Nav1.7 IC50 in test [8] of 4500 nM.

As for “[Ala5;Phe6;Asp13;Arg28]GpTx-1(1-34)-FreeAcid (peptide)”, the IWQ Use Nav1.3 IC50 in [6] was 2300 nM.

With “[Ala5;Phe6;Gln13;Arg28]GpTx-1(1-34)-FreeAcid (peptide)”, the IWQ Use Nav1.3 IC50 in test [6] was 1700 nM.

Take “[Ala5;Phe6;Glu10;Pra13;Leu26;Arg28]GpTx-1(1-34) (peptide)”: the IWQ Use Nav1.3 IC50 (IonWorks Quattro electrophysiology) in test [1] was 0.56 µM. In [2], this molecule had an IWQ Use Nav1.5 IC50 (IonWorks Quattro electrophysiology) of 32.2 µM. For the same molecule, the IWQ Use Nav1.7 IC50 (IonWorks Quattro electrophysiology) in test [3] amounted to 0.54 µM. In [4], this molecule showed a Nav1.5 Use IC50 (µM), electrophysiology by PatchXpress of 15.3 µM. This molecule also displayed a Nav1.7 Use IC50 (µM), electrophysiology by PatchXpress in [5] of 0.012 µM.

For the molecule “[Ala5;Phe6;Glu13;Arg28]GpTx-1(1-34)-FreeAcid (peptide)”, in [6], the IWQ Use Nav1.3 IC50 was 1900 nM.

“[Ala5;Phe6;Gly13;Arg28]GpTx-1(1-34)-FreeAcid (peptide)” showed an IWQ Use Nav1.3 IC50 in test [6] of 1500 nM.

In [6], “[Ala5;Phe6;Ile13;Arg28]GpTx-1(1-34)-FreeAcid (peptide)” came in with an IWQ Use Nav1.3 IC50 of 3000 nM.

In turn, “[Ala5;Phe6;Leu13;Arg28]GpTx-1(1-34)-FreeAcid (peptide)” displayed an IWQ Use Nav1.3 IC50 in test [6] of 4500 nM. In test [8], this molecule displayed an IWQ Use Nav1.7 IC50 of 4500 nM.

Take “[Ala5;Phe6;Lys13;Arg28]GpTx-1(1-34)-FreeAcid (peptide)”: the IWQ Use Nav1.3 IC50 in [6] amounted to 300 nM. Moreover, the IWQ Use Nav1.5 IC50 in test [7] came out at 2800 nM. In [8], this molecule came in with an IWQ Use Nav1.7 IC50 of 3600 nM.

“[Ala5;Phe6;Met13;Arg28]GpTx-1(1-34)-FreeAcid (peptide)” yielded an IWQ Use Nav1.3 IC50 in test [6] of 800 nM. In addition, in [8], the IWQ Use Nav1.7 IC50 was found to be 4700 nM.

For “[Ala5;Phe6;Pra12;Leu26;Arg28]GpTx-1(1-34) (peptide)”, in test [1], the IWQ Use Nav1.3 IC50 (IonWorks Quattro electrophysiology) worked out at 0.12 µM. Further, the IWQ Use Nav1.5 IC50 (IonWorks Quattro electrophysiology) in test [2] amounted to 36.5 µM. The same molecule had an IWQ Use Nav1.7 IC50 (IonWorks Quattro electrophysiology) in [3] of 0.13 µM.

In the case of “[Ala5;Phe6;Pro13;Arg28]GpTx-1(1-34)-FreeAcid (peptide)”, the IWQ Use Nav1.3 IC50 in [6] was 2900 nM. The same molecule registered an IWQ Use Nav1.7 IC50 in test [8] of 2900 nM.

In test [6], “[Ala5;Phe6;Ser13;Arg28]GpTx-1(1-34)-FreeAcid (peptide)” came in with an IWQ Use Nav1.3 IC50 of 1100 nM.

Molecule “[Ala5;Phe6;Thr13;Arg28]GpTx-1(1-34)-FreeAcid (peptide)” gave an IWQ Use Nav1.3 IC50 in [6] of 1300 nM.

Molecule “[Ala5;Phe6;Val13;Arg28]GpTx-1(1-34)-FreeAcid (peptide)” returned an IWQ Use Nav1.3 IC50 in [6] of 1700 nM.

For “[Nva5;Leu6;K(4-Pen)13;Arg28]GpTx-1(1-34) (peptide)”, in [1], the IWQ Use Nav1.3 IC50 (IonWorks Quattro electrophysiology) was 0.27 µM. This molecule displayed an IWQ Use Nav1.5 IC50 (IonWorks Quattro electrophysiology) in test [2] of 37.5 µM. The molecule further gave an IWQ Use Nav1.7 IC50 (IonWorks Quattro electrophysiology) in test [3] of 0.31 µM.

In the case of D[Abu]LG[Abu]LRKCIPDNDKC[Abu]RPNLVCSRTHEWCKYVF (ends and bridges not checked) [[2-Abu2,5,17;Leu6;Glu28]GpTx-1(1-34)], the IWQ Use Nav1.3 (µM) (IC50, IonWorks Quattro population patch clamp) in [6] was more than 5 µM. In [9], this molecule displayed an IWQ Use Nav1.4 (µM) (IC50, IonWorks Quattro population patch clamp) of more than 50 µM. The IWQ Use Nav1.5 (µM) (IC50, IonWorks Quattro population patch clamp) in test [7] was more than 50 µM. The molecule also yielded an IWQ Use Nav1.7 (µM) (IC50, IonWorks Quattro population patch clamp) in test [8] of 4.3 µM.

B1: [Ala5;Leu6,26;Glu10;Atz(PEG11-((2-hydroxyethyl)thio)acetamide)13;Arg28]GpTx-1(1-34) (peptide)
peptide: DCLGALRKCEPD[Atz]([PEG11′-X2])DKCCRPNLVCSRLHRWCKYVF
modifications: ends and bridges not checked; also: printed as [Ala5;Leu6,26;Glu10;Atz(PEG11-((2-hydroxyethyl)thio)acetamide)13;Arg28]GpTx-1(1-34)
As for B1, the Nav1.4 Use IC50 (PatchXpress electrophysiology, inhibition of sodium current) in test [9] was more than 10 µM. For the same molecule, the Nav1.5 Use IC50 (PatchXpress electrophysiology, inhibition of sodium current) in test [7] was more than 10 µM. Also, the Nav1.7 Use IC50 (PatchXpress electrophysiology, inhibition of sodium current) in [8] was 0.054 µM.

In the case of D[Abu]LG[Nva]LRKCIPDNDKC[Abu]RPNLVCSRTHEWCKYVF (ends and bridges not checked) [[2-Abu2,17;Nva5;Leu6;Glu28]GpTx-1(1-34)], the IWQ Use Nav1.3 (µM) (IC50, IonWorks Quattro population patch clamp) in test [6] was more than 5 µM. In addition, in test [9], the IWQ Use Nav1.4 (µM) (IC50, IonWorks Quattro population patch clamp) is more than 50 µM. In test [7], this molecule had an IWQ Use Nav1.5 (µM) (IC50, IonWorks Quattro population patch clamp) of more than 50 µM. Besides, the IWQ Use Nav1.7 (µM) (IC50, IonWorks Quattro population patch clamp) in [8] is more than 5 µM.

D[Abu]LGVLRKCIPDNDKC[Abu]RPNLVCSRTHEWCKYVF (ends and bridges not checked) [[2-Abu2,17;Val5;Leu6;Glu28]GpTx-1(1-34)] showed an IWQ Use Nav1.3 (µM) (IC50, IonWorks Quattro population patch clamp) in [6] of more than 5 µM. The IWQ Use Nav1.4 (µM) (IC50, IonWorks Quattro population patch clamp) in test [9] was more than 50 µM. In addition, the IWQ Use Nav1.5 (µM) (IC50, IonWorks Quattro population patch clamp) in test [7] was determined as 33 µM. This molecule had an IWQ Use Nav1.7 (µM) (IC50, IonWorks Quattro population patch clamp) in test [8] of more than 5 µM.

Take D[Abu]LGALRKCIPDNDKC[Abu]RPNLVCSRTHEWCKYVF (ends and bridges not checked) [[2-Abu2,17;Ala5;Leu6;Glu28]GpTx-1(1-34)]: in test [6], the IWQ Use Nav1.3 (µM) (IC50, IonWorks Quattro population patch clamp) is more than 5 µM. For the same molecule, the IWQ Use Nav1.4 (µM) (IC50, IonWorks Quattro population patch clamp) in [9] is more than 50 µM. Further, the IWQ Use Nav1.5 (µM) (IC50, IonWorks Quattro population patch clamp) in test [7] was more than 50 µM. The IWQ Use Nav1.7 (µM) (IC50, IonWorks Quattro population patch clamp) in test [8] worked out at 4.3 µM.

The values are drawn from patent publication US20160304570A1.
